B1: CPEB3 Ribozyme (parent)
chain: UAACAGGGGGCCACAGCAGAAGCGUUCACGUCGCAGCCCCUGUCAGAUUCUGGUGAAUCUGCGAAUUCUGCUGUAUAUCUC

Variants of: B1
Assay: self-cleavage, relative activity (ratio to wild type); higher = more cleavage; in vitro, sequencing
Summary of the method: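 After error-prone PCR and barcoding, CPEB3 ribozyme mutant libraries were transcribed with T7 RNA polymerase at 37°C for 5 hours, then given 15 min with DNase I before an EDTA stop, and they cleaved during both steps. Reverse transcription with template switching preceded Illumina sequencing. Relative activity divides a variant's cleaved/total read fraction by the unmutated ribozyme's. At least 5 reads were required per variant, and three batches were averaged.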

| Variant | self-cleavage |
| --- | --- |
| A5G U54C | 0.64 |
| A5G U54A | 0.82 |
| A5G U54G | 0.47 |
| A5G A18C | 0.48 |
| A5G A18U | 0.33 |
| A5G A18G | 0.5 |
| A5G G61A | 0.49 |
| A5G C50U | 0.5 |
| A5U C62U | 0.22 |
| A5U C62G | 0.49 |
| C4U U72A | 1.01 |
| C4U U72C | 1.12 |
| A5G U60G | 0.35 |
| A5G U60C | 0.36 |
| A5G U60A | 0.31 |
| C4U U74C | 1.18 |
| A5C U26A | 1.04 |
| A5C U26C | 0.58 |
| A5G C29U | 0.26 |
| A5G C29G | 0.57 |
| A5U A75G | 0.95 |
| A5U C40U | 0.78 |
| A5U C40A | 0.09 |
| A5C C23G | 0.18 |

| Variant | self-cleavage |
| --- | --- |
| A5C U69C | 0.59 |
| A5C U69G | 0.67 |
| A5C U69A | 0.67 |
| A5C C29U | 0.42 |
| A5C A56G | 0.75 |
| A5C C62U | 0.13 |
| A5G C81A | 1.1 |
| A5G A45G | 0.63 |
| A5G A45U | 0.36 |
| A5G A45C | 0.42 |
| A5G G52A | 1 |
| A5G G52U | 0.73 |
| A5G C27U | 0.13 |
| A5G C27A | 0.44 |
| A5U A18U | 0.34 |
| A5U A18G | 0.87 |
| A5C U80A | 1.19 |
| A5C U80C | 1.05 |
| A5C G46U | 0.06 |
| A5C U67C | 0.22 |
| A5C U67A | 0.48 |
| A5C U67G | 0.27 |
| A5G C17A | 0.3 |
| A5G C17U | 0.47 |

| Variant | self-cleavage |
| --- | --- |
| A5G C12U | 1.12 |
| A5G C12A | 0.4 |
| A5C C17A | 0.19 |
| A5C A47G | 0.78 |
| A5C A47U | 0.53 |
| A5C U74C | 1.19 |
| A5G G73U | 1.17 |
| A5G G73C | 1.25 |
| A5G G73A | 1.17 |
| A5G C11G | 0.5 |
| A5G C23U | 0.36 |
| A5G C23G | 0.61 |
| A5G A15G | 0.6 |
| A5G A15C | 0.83 |
| A5G A15U | 0.61 |
| A5G U41A | 0.32 |
| A5G U41G | 0.28 |
| A5G U41C | 0.5 |
| A5C U31C | 0.8 |
| A5C U31A | 0.75 |
| A5U C34A | 0.65 |
| A5U C34U | 0.55 |
| A5G U69G | 0.49 |
| A5G U69A | 0.49 |

| Variant | self-cleavage |
| --- | --- |
| A5G U69C | 0.37 |
| C4U U69C | 0.86 |
| A5U A57C | 0.7 |
| A5U A57U | 0.67 |
| A5U A57G | 0.97 |
| A5U A35G | 1.19 |
| A5U A35U | 0.63 |
| A5U A35C | 1.2 |
| A5C C32G | 0 |
| A5G A57C | 0.28 |
| A5G A57G | 0.64 |
| A5G A57U | 1.04 |
| A5U A15G | 0.93 |
| A5U A15U | 1.1 |
| A5U A15C | 1.18 |
| A5G A28G | 0.48 |
| A5G A28C | 0.61 |
| A5G A28U | 0.55 |
| A5G G63C | 0.5 |
| A5G G63U | 0.95 |
| A5G G63A | 0.61 |
| C4U U76C | 1.16 |
| A5C U58C | 0.58 |
| A5C U58A | 0.49 |

| Variant | self-cleavage |
| --- | --- |
| A5C U51C | 0.6 |
| A5U A21U | 0.53 |
| A5U A21G | 0.77 |
| A5U A21C | 0.29 |
| A5G U66C | 0.38 |
| A5G U66G | 0.44 |
| A5G U66A | 0.23 |
| A5G C34G | 0.52 |
| A5G G36A | 0.29 |
| A5G G36U | 0.72 |
| A5C U43C | 0.57 |
| A5C U43A | 1.13 |
| A5C U43G | 0.38 |
| A5C U25C | 0.15 |
| A5G A65U | 0.19 |
| A5G A65C | 0.25 |
| A5G A65G | 0.39 |
| A5G A21U | 0.33 |
| A5G A21G | 0.43 |
| A5G A21C | 0.39 |
| A5G G8A | 0.23 |
| A5G G8U | 0.46 |
| A5U C59G | 0.37 |
| A5U C59A | 0.43 |

| Variant | self-cleavage |
| --- | --- |
| A5G U26A | 0.56 |
| A5G U26C | 0.44 |
| A5G U26G | 0.55 |
| A5U C14A | 1.19 |
| A5U C14U | 0.88 |
| A5U A77G | 1.09 |
| A5U A77U | 1.16 |
| A5C A65G | 0.44 |
| A5C A35G | 1.18 |
| A5C A35U | 0.54 |
| A5G U51G | 0.68 |
| A5G U51C | 0.68 |
| A5G U51A | 0.63 |
| A5G A75C | 0.57 |
| A5G A75G | 0.49 |
| A5G A75U | 0.83 |
| A5G C14U | 0.8 |
| A5C | 0.98 |
| A5G | 0.74 |
| A5U | 1.04 |
| A5U C27G | 0.21 |
| A5U C27U | 0.22 |
| A5C U41G | 0.35 |
| A5C U41A | 0.28 |

| Variant | self-cleavage |
| --- | --- |
| A5G G42C | 0.49 |
| A5G G42A | 0.4 |
| A5C A13G | 1.07 |
| A5C A13U | 1.22 |
| A5G U25G | 0.55 |
| A5G U25A | 0.42 |
| A5G U25C | 0.39 |
| A5U C11G | 0.5 |
| A5C U54C | 1.09 |
| A5C U54G | 0.81 |
| A5U A56C | 0.91 |
| A5U A56G | 0.81 |
| A5U A56U | 0.9 |
| A5C G6U | 0.32 |
| A5C G55U | 1.13 |
| A5G U31A | 0.41 |
| A5G U31G | 0.47 |
| A5G U31C | 0.48 |
| A5G C44U | 0.43 |
| A5G G10U | 0.39 |
| A5G A64U | 0.35 |
| A5G A64G | 0.58 |
| A5G G46U | 0.4 |
